From patent publication US20100076060A1

Target: OX40 (CD134) on mouse lymph node T cells (mouse) (UniProt P47741)
Assay: cell-based or functional assay

B1: OX40 agonistic antibody (OX86) (antibody, from another filing, V domains shown)
VH: QVQLKESGPGLVQPSQTLSLTCTVSGFSLTGYNLHWVRQPPGKGLEWMGRMRYDGDTYYNSVLKSRLSISRDTSKNQVFLKMNSLQTDDTAIYYCTRDGRGDSFDYWGQGVMVTVSS
VL: DIVMTQGALPNPVPSGESASITCRSSQSLVYKDGQTYLNWFLQRPGQSPQLLTYWMSTRASGVSDRFSGSGSGTYFTLKISRVRAEDAGVYYCQQVREYPFTFGSGTKLEIK
  interferon-gamma secretion (ELISA), after subtracting background of the negative control: 15 pg/mL
